Experimental data: patent publication US20240043534A1 (UNIVERSITY OF CHICAGO, published 2024)

B1: Protein GA1 (designed binder)
chain: TPAVTTYKLVINGRTLSGYTTTTAVDAATAEKVFKQYAYVHEVDGEWTYDDATKTFTVTEKPEKL
notes: also called pGA1; PGA1

Tests used:
[1] = target: T1, Fab^S (Herceptin Fab scaffold variant with Lc E123S; Lc aa 123-127 SQLKS); experiment: SPR (preliminary results), Protein G variant against Fab scaffold
[2] = target: T1, Fab^S (Herceptin Fab scaffold variant …); experiment: SPR
[3] = target: T2, Fab^H (Herceptin Fab scaffold with wt human kappa Lc; Lc aa 123-127 EQLKS); experiment: SPR (preliminary results), Protein G variant against Fab scaffold
T2 construct: also called Hkappa

[4] = target: T3, “Λ” Fab scaffold (4D5 scaffold with SEELQANK in the Lc region); experiment: as above
T3 construct: also called “Lambda” Fab scaffold

[5] = target: B1; experiment: SPR, Fab Lc variant as analyte on His-tag-immobilized GA1
[6] = target: T4, C-terminal domain of the Zaire strain of Ebola virus nucleoprotein (EBOV NP^CT) (Ebola virus, Zaire strain (EBOV), UniProt P18272 641-739); experiment: SPR, Fab as analyte on His-tag-immobilized antigen
T4 construct: also called EBOV NT^CT; NP^CT EBOV Zaire
T4 sequence: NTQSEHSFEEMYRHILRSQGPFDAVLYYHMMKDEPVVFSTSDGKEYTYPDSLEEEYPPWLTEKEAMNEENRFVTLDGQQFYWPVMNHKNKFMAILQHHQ

T3 sequence (light, as listed by the source): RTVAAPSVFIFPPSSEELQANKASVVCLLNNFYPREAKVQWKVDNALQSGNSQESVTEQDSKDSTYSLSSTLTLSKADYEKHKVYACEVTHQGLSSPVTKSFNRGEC

| Binder | Kd [1] [nM] | Kd [6] [nM] | other results |
| --- | --- | --- | --- |
| B1 | 100 | – | Kd [2]: ~50 nM |
| Protein G F (designed binder, also called pGF; F 38YAFGNG43) TPAVTTYKLVINGRTLSGYTTTTAVDAATAEKVFKQYAFGNGVDGEWTYDDATKTFTVTEKPEKL | 60 | – | Kd [3]: 3 nM; Kd [4]: 50 nM |
| Protein G D (designed binder, also called pGD; D 38IDMVSS43) TPAVTTYKLVINGRTLSGYTTTTAVDAATAEKVFKQIDMVSSVDGEWTYDDATKTFTVTEKPEKL | 80 | – | – |
| Fab Lc scaffold variant ΔΔLKT (mutated; printed in Table 1 as AALKS) (Fab, V domains shown) VH: EVQLVESGGGLVQPGGSLRLSCAASGFNISYSSIHWVRQAPGKGLEWVASIYSYSGYTSYADSVKGRFTISADTSKNTAYLQMNSLRAEDTAVYYCARSYWYHVGSWHYTGMDYWGQGTLVTVSS VL: DIQMTQSPSSLSASVGDRVTITCRASQSVSSAVAWYQQKPGKAPKLLIYSASSLYSGVPSRFSGSRSGTDFTLTISSLQPEDFATYYCQQSSSSLITFGQGTKVEIKR | – | – | Kd [5]: 12 nM |
| MJ6 EBOV LRT-Fab (Fab, V domains shown, also called Fab MJ6) VH: EVQLVESGGGLVQPGGSLRLSCAASGFNVYYYYIHWVRQAPGKGLEWVASISPYYGYTSYADSVKGRFTISADTSKNTAYLQMNSLRAEDTAVYYCARWSYDQSMSYKSGMDYWGQGTLVTVSS VL: DIQMTQSPSSLSASVGDRVTITCRASQSVSSAVAWYQQKPGKAPKLLIYSASSLYSGVPSRFSGSRSGTDFTLTISSLQPEDFATYYCQQYSYSLVTFGQGTKVEIKR | – | 0.7 | koff [6]: 0.001 s⁻¹ |
| MJ20 RESTV LRT-Fab (Fab, V domains shown, also called Fab MJ20) VH: EVQLVESGGGLVQPGGSLRLSCAASGFNISYSSIHWVRQAPGKGLEWVASIYSYSGYTSYADSVKGRFTISADTSKNTAYLQMNSLRAEDTAVYYCARSYWYHVGSWHYTGMDYWGQGTLVTVSS VL: DIQMTQSPSSLSASVGDRVTITCRASQSVSSAVAWYQQKPGKAPKLLIYSASSLYSGVPSRFSGSRSGTDFTLTISSLQPEDFATYYCQQSSSSLITFGQGTKVEIKR | – | 3.4 | – |
